Test results reported in US20240034774A1.

Experiments:
Assay in all cases: cell-based or functional assay
[1] = molecular target: HIV-1 envelope glycoprotein gp120 of virus VS001 (HIV-1)
[2] = molecular target: HIV-1 envelope glycoprotein gp120 of virus 7141 (HIV-1)
[3] = molecular target: HIV-1 envelope glycoprotein gp120 of virus 92US727 (HIV-1)

| Binder | neutralization IC50 [1] [µg/mL] | neutralization IC50 [2] [µg/mL] | neutralization IC50 [3] [µg/mL] |
| --- | --- | --- | --- |
| 3.1.9-1 (antibody, human IgG1, kappa, V domains shown) VH: QVQLLQSGAAVTKPGASVRVSCEASGYNIRDYFIHWWRQAPGQGLQWVGWINPKTGQPNNPRQFQGRVSLTRHASWDFDTFSFYMDLKALRSDDTAVYFCARQRSDYWDFDVWGSGTQVTVSS VL: DIQMTQSPSSLSARVGDTATITCQANGYLNWYQQRRGKAPKLLIYDGSKLERGVPARFSGRRWGQEYNLTINNLQPEDVATYFCQVYEFFGPGTRLDLKR | 0.16 | 4.35 | 3.54 |
| 2.2.12-1 (antibody, human IgG1, kappa, V domains shown) VH: QVHLSQSGAAVTKPGASVRVSCEASGYKIRDHFIHWWRQAPGQGLQWVGWINPKTGQPNNPRQFQGRVSLTRHASWDFDTFSFYMDLKAVRSDDTAIYFCARQRSDYWDFDVWGSGTQVTVSS VL: DIQMTQSPSSLSARVGDTATITCQANGYLNWYQQRRGKAPKLLIYDGSKLERGVPARFSGRRWGQEYILTINNLQPEDVATYFCQVYEFFGPGTRLDLKR | 2.1 | 7.08 | > 50 |
| 2.2.9-1 (antibody, human IgG1, kappa, V domains shown) VH: QVHLSQSGAAVTKPGASVRVSCEASGYKIRDHFIHWWRQAPGQGLQWVGWINPKTGQPNNPRQFQGRVSLTRHASWDFDTFSFYMDLKAVRSDDTAIYFCARQRSDYWDFDVWGSGTQVTVSS VL: DIQMTQSPSSLSARVGDTATITCQANGYLNWYQQRRGKAPKLLIYDGSKLERGVPARFSGRRWGQEYNLTINNLQPEDVATYFCQVYEFFGPGTRLDLKR | 0.15 | 1.75 | 13.1 |
| 3.1.12-1 (antibody, human IgG1, kappa, V domains shown) VH: QVQLLQSGAAVTKPGASVRVSCEASGYNIRDYFIHWWRQAPGQGLQWVGWINPKTGQPNNPRQFQGRVSLTRHASWDFDTFSFYMDLKALRSDDTAVYFCARQRSDYWDFDVWGSGTQVTVSS VL: DIQMTQSPSSLSARVGDTATITCQANGYLNWYQQRRGKAPKLLIYDGSKLERGVPARFSGRRWGQEYILTINNLQPEDVATYFCQVYEFFGPGTRLDLKR | 2.41 | 24.5 | > 41 |
| 2.3.9-1 (antibody, human IgG1, kappa, V domains shown) VH: QVHLSQSGAAVTKPGASVRVSCEASGYNIRDYFIHWWRQAPGQGLQWVGWINPKTGQPNNPRQFQGRVSLTRHASWDFDTFSFYMDLKAVRSDDTAIYFCARQRSDYWDFDVWGSGTQVTVSS VL: DIQMTQSPSSLSARVGDTATITCQANGYLNWYQQRRGKAPKLLIYDGSKLERGVPARFSGRRWGQEYNLTINNLQPEDVATYFCQVYEFFGPGTRLDLKR | 0.22 | 2.56 | 11.1 |
| 2.3.12-1 (antibody, human IgG1, kappa, V domains shown) VH: QVHLSQSGAAVTKPGASVRVSCEASGYNIRDYFIHWWRQAPGQGLQWVGWINPKTGQPNNPRQFQGRVSLTRHASWDFDTFSFYMDLKAVRSDDTAIYFCARQRSDYWDFDVWGSGTQVTVSS VL: DIQMTQSPSSLSARVGDTATITCQANGYLNWYQQRRGKAPKLLIYDGSKLERGVPARFSGRRWGQEYILTINNLQPEDVATYFCQVYEFFGPGTRLDLKR | 1.92 | 23.8 | > 50 |
| 1.1.117-1 (antibody, human IgG1, kappa, V domains shown) VH: QVQLLQSGAAVTKPGASVRVSCEASGYNIRDYFIHWWRQAPGQGLQWVGWINPKTGQPNNPRQFQGRVSLTRHASWDFDTFSFYMDLKALRSDDTAVYFCARQRSDYWDFDVWGSGTQVTVSS VL: DIQMTQSPSSLSASVGDTATITCQANGYLNWYQQRRGKAPKLLIYDGSKLERGVPSRFSGRRWGQEYILTINNLQPEDIATYFCQVYEFFGPGTRLDLKR | 3.03 | 16.9 | > 50 |
